These results are taken from patent US20140242080A1 (Hoffmann-La Roche, published 2014).

Residue numbers refer to the chain shown, from its start.

For experiment [1], the target named is T1, hu-MCSP(D3 domain)-avi-his (human, UniProt Q6UVK1 1582-2224).
T1 construct: Recombinant D3 domain with avi and his tags; also called human MCSP(D3 domain)-avi-his; Human MCSP D3
T1 sequence: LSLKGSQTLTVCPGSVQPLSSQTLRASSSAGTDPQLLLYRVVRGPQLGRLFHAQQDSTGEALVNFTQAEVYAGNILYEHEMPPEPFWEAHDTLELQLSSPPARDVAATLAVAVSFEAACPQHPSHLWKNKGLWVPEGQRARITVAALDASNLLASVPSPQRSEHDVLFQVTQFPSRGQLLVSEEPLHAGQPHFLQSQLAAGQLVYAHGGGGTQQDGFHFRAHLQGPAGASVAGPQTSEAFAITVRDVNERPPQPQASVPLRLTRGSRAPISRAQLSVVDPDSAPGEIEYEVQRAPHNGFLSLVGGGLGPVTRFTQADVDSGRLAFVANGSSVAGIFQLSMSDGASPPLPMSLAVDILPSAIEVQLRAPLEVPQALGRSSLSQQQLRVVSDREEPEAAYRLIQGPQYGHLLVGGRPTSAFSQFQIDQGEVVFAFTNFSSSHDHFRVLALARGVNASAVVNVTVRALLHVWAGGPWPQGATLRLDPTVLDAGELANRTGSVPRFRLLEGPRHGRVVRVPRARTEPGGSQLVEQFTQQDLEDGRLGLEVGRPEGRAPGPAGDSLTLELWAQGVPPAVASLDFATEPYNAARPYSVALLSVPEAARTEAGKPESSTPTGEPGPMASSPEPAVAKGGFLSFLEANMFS
Briefly: SPR ProteOn XPR36, 25 C; IgG captured via anti-human F(ab')2, MCSP D3 as analyte.

The target of experiment [2] is T2, cynomolgus MCSP D3 (cynomolgus, UniProt Q6UVK1 1582-2224 (human entry), limits assumed).
T2 construct: also called Cyno MCSP; cynomolgus homologue
T2 chain: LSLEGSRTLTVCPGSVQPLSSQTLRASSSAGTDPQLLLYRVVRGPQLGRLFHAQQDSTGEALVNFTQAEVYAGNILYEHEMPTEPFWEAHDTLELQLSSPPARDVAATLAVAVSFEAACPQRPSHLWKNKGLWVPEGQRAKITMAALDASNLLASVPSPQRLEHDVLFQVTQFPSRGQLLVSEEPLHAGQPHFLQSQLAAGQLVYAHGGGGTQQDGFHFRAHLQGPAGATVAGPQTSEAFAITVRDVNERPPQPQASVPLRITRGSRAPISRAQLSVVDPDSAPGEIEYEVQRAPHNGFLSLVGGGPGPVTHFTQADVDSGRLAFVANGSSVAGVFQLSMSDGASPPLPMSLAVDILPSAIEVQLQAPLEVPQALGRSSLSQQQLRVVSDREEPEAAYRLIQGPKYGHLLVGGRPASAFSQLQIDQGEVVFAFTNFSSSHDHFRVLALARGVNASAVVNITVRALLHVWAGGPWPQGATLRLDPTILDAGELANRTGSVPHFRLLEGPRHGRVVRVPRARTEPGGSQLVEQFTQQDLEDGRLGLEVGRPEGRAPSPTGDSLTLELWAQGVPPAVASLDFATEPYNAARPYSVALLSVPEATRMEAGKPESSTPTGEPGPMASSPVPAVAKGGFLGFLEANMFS
Described as above.

The target of experiment [3] is T1, hu-MCSP(D3 domain)-avi-his. As to the kind of experiment: SPR Biacore T200, 25 C; affinity: IgG captured via anti-human Fc, MCSP D3 as analyte. As to the method:
(§1) For analyzing the avidity of the interaction of different anti-MCSP IgGs to human and cynomolgus MCSP D3 direct coupling of around 9,500 resonance units (RU) of the anti-Penta His antibody (Qiagen) was performed on a CM5 chip at pH 5.0 using the standard amine coupling kit (Biacore, Freiburg/Germany). Antigens were captured for 60 s at 30 nM with 10 μl/min respectively. IgGs were passed at a concentration of 0.0064-100 nM with a flowrate of 30 μl/min through the flow cells over 280 s. The dissociation was monitored for 180 s. Bulk refractive index differences were corrected for by subtracting the response obtained on reference flow cell. […] For affinity measurements IgGs were captured on a CM5 sensorchip surface with immobilized anti human Fc. Capture IgG was coupled to the sensorchip surface by direct immobilization of around 9,500 resonance units (RU) at pH 5.0 using the standard amine coupling kit (Biacore, Freiburg/Germany). IgGs are captured for 25 s at 10 nM with 30 μl/min. Human and cynomolgus MCSP D3 were passed at a concentration of 2-500 nM with a flowrate of 30 μl/min through the flow cells over 120 s. The dissociation was monitored for 60 s. […] Bulk refractive index differences were corrected for by subtracting the response obtained on reference flow cell.
(In general: Surface plasmon resonance follows binding to a sensor surface in real time, without labels.)

The target in experiment [4] is T2, cynomolgus MCSP D3. Described as above. On the procedure:
as §1

For experiment [5], the target named is T1, hu-MCSP(D3 domain)-avi-his. As to the kind of experiment: SPR Biacore T200, 25 C; avidity: MCSP D3 captured via anti-Penta His, IgG as analyte. On the procedure:
as §1

The target in experiment [6] is T2, cynomolgus MCSP D3. Described as above. As to the method: as §1
For experiment [7], the target named is T1, hu-MCSP(D3 domain)-avi-his. As to the kind of experiment: ratio of ProteOn IgG KD, parent M4-3/ML2 against variant.
Experiment [8] deals with T2, cynomolgus MCSP D3. Described as above.
For experiment [9], the target named is T3, human CEA expressed on tumor cells (LS-174T, A549-huCEA, MKN-45, MC38-huCEA, HPAFII, BxPC-3, ASPC-1) (human, UniProt P06731 35-685).
T3 sequence (looked up): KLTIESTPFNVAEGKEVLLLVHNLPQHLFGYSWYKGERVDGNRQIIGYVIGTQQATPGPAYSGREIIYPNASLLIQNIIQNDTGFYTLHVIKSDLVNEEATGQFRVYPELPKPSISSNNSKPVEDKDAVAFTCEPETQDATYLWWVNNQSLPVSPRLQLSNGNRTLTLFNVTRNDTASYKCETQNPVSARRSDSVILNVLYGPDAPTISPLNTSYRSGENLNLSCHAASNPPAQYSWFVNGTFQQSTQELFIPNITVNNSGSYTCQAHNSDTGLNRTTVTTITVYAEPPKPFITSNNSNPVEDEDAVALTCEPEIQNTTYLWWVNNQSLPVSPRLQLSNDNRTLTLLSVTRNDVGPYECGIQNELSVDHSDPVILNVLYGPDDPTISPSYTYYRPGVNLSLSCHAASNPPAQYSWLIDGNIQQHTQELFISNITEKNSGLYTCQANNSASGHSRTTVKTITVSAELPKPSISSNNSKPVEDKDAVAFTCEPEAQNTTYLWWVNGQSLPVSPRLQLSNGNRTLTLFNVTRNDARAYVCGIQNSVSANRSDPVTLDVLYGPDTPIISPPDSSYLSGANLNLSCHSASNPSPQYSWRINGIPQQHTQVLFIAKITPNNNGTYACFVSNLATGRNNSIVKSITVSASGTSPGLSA
As to the kind of experiment: cell-based or functional assay.

The target in experiment [10] is T4, human CD3 expressed on Jurkat cells (human, UniProt P07766 23-207).
T4 construct: CD3 complex on Jurkat T cells; also called CD3 on Jurkat cells; huCD3
T4 sequence (P07766 23-207 limits assumed): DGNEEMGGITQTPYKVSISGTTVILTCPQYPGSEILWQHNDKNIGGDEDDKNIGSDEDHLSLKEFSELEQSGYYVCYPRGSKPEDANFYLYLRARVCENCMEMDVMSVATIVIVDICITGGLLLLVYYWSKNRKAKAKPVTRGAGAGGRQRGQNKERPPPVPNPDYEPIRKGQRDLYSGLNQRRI
Briefly: flow cytometry on Jurkat cells. On the procedure:
Binding of the different bispecific constructs to CD3 on Jurkat cells (ATCC #TIB-152), and the respective tumor antigen on target cells, was determined by FACS. Briefly, cells were harvested, counted and checked for viability. 0.15-0.2 million cells per well (in PBS containing 0.1% BSA; 90 μl) were plated in a round-bottom 96-well plate and incubated with the indicated concentration of the bispecific constructs and corresponding IgG controls (10 μl) for 30 min at 4° C. […] After the incubation, cells were centrifuged (5 min, 350×g), washed with 150 μl PBS containing 0.1% BSA, resuspended and incubated for further 30 min at 4° C. with 12 μl/well of a FITC- or PE-conjugated secondary antibody. Bound constructs were detected using a FACSCantoII (Software FACS Diva). The “(scFv)₂” molecule was detected using a FITC-conjugated anti-His antibody (Lucerna, #RHIS-45F-Z). For all other molecules, a FITC- or PE-conjugated AffiniPure F(ab′)2 Fragment goat anti-human IgG Fcγ Fragment Specific (Jackson Immuno Research Lab #109-096-098/working solution 1:20, or #109-116-170/working solution 1:80, respectively) was used. Cells were washed by addition of 120 μl/well PBS containing 0.1% BSA and centrifugation at 350×g for 5 min. A second washing step was performed with 150 μl/well PBS containing 0.1% BSA. […] EC50 values were calculated using the GraphPad Prism software.
As a control, the equivalent maximum concentration of the corresponding IgGs and the background staining due to the labeled 2ndary antibody (goat anti-human FITC-conjugated AffiniPure F(ab′)2 Fragment, FcγFragment-specific, Jackson Immuno Research Lab #109-096-098) were assessed as well.
In general terms: A flow cytometer gives signals particle by particle.

B1: Parental M4-3/ML2 IgG (antibody, V domains shown)
VH: QVQLQESGPGLVKPSQTLSLTCTVSGGSITSGYYWNWIRQHPGKGLEWIGYITYDGSNNYNPSLKSRVTISRDTSKNQFSLKLSSVTAADTAVYYCADFDYWGQGTLVTVSS
VL: DIQMTQSPSSLSASVGDRVTITCRASQGIRNYLNWYQQKPGKAPKLLIYYTSSLHSGVPSRFSGSGSGTDFTLTISSLQPEDFATYYCQQYSKLPWTFGQGTKVEIK
notes: Human IgG1 format, from mammalian production; also called M4-3 ML2 (parental); anti-MCSP antibody M4-3/ML2
Consider B1, for which the Kd in [1] was determined as 2 nM; in the experiment with cynomolgus MCSP D3 [2], 2 nM; in [3], 8.6 nM; with cynomolgus MCSP D3 [4] it was 11.4 nM; in experiment [5] it was 0.009 nM; with cynomolgus MCSP D3 [6], 0.0123 nM.

B2: M4-3(C1)/ML2(C5) IgG (antibody, V domains shown)
VH: B1 VH with Y54F
VL: B1 VL with Q27R, N31E, S52G, K93E
notes: Human IgG1
B2: the “Fold increase over parent” value came to 10 fold in [7] and 6.7 fold in the experiment with cynomolgus MCSP D3 [8]. Besides, the Kd in experiment [1] came out at 0.2 nM; with cynomolgus MCSP D3 [2] it was 0.3 nM; in experiment [3], 1.8 nM; in the experiment with cynomolgus MCSP D3 [4] it was 1.3 nM; in [5], 0.0046 nM; in the experiment with cynomolgus MCSP D3 [6] it was 0.0044 nM.

B3: M4-3(C1)/ML2(E10) IgG (antibody, V domains shown)
VH: B1 VH with Y54F
VL: B1 VL with Q27Y, N31G, Y87H
notes: Human IgG1
As to B3, the “Fold increase over parent” value was 4 fold in [7] and 3.3 fold with cynomolgus MCSP D3 [8]. In addition, the Kd in experiment [1] stood at 0.5 nM; with cynomolgus MCSP D3 [2], 0.6 nM; in experiment [3], 4.6 nM; in the experiment with cynomolgus MCSP D3 [4], 3.8 nM; in experiment [5] it was 0.0063 nM; with cynomolgus MCSP D3 [6], 0.0044 nM.

B4: 1 + 1 IgG-Crossfab light chain fusion (CH1A1A/V9) (anti-CEA/anti-huCD3) (bispecific antibody)
chain 1: DIQMTQSPSSLSASVGDRVTITCRASQDIRNYLNWYQQKPGKAPKLLIYYTSRLESGVPSRFSGSGSGTDYTLTISSLQPEDFATYYCQQGNTLPWTFGQGTKVEIKSSASTKGPSVFPLAPSSKSTSGGTAALGCLVKDYFPEPVTVSWNSGALTSGVHTFPAVLQSSGLYSLSSVVTVPSSSLGTQTYICNVNHKPSNTKVDKKVEPKSC
chain 2: DIQMTQSPSSLSASVGDRVTITCKASAAVGTYVAWYQQKPGKAPKLLIYSASYRKRGVPSRFSGSGSGTDFTLTISSLQPEDFATYYCHQYYTYPLFTFGQGTKLEIKRTVAAPSVFIFPPSDEQLKSGTASVVCLLNNFYPREAKVQWKVDNALQSGNSQESVTEQDSKDSTYSLSSTLTLSKADYEKHKVYACEVTHQGLSSPVTKSFNRGECGGGGSGGGGSGGGGSGGGGSEVQLVESGGGLVQPGGSLRLSCAASGYSFTGYTMNWVRQAPGKGLEWVALINPYKGVSTYNQKFKDRFTISVDKSKNTAYLQMNSLRAEDTAVYYCARSGYYGDSDWYFDVWGQGTLVTVSSASVAAPSVFIFPPSDEQLKSGTASVVCLLNNFYPREAKVQWKVDNALQSGNSQESVTEQDSKDSTYSLSSTLTLSKADYEKHKVYACEVTHQGLSSPVTKSFNRGEC
chain 3: not shown
chain 4: DKTHTCPPCPAPEAAGGPSVFLFPPKPKDTLMISRTPEVTCVVVDVSHEDPEVKFNWYVDGVEVHNAKTKPREEQYNSTYRVVSVLTVLHQDWLNGKEYKCKVSNKALGAPIEKTISKAKGQPREPQVCTLPPSRDELTKNQVSLSCAVKGFYPSDIAVEWESNGQPENNYKTTPPVLDSDGSFFLVSKLTVDKSRWQQGNVFSCSVMHEALHNHYTQKSLSLSPGK
notes: also called “1+1 IgG Crossfab light chain (LC) fusion”
Turning to B4, in experiment [9], the “EC50 of T cell-mediated killing (LDH release), LS-174T cells, human PBMCs E:T 10:1, 28 h” value was determined as 1.56 nM; the “EC50 of T cell-mediated killing (LDH release), MC38-huCEA cells, human PBMCs E:T 10:1, 24 h” value is roughly 3.2 nM; the “EC50 of T cell-mediated killing (LDH release), MKN-45 cells, human PBMCs E:T 10:1, 28 h” value was found to be 0.213 nM. For the same molecule, in experiment [10], the binding result was “binds”.
